Measurements taken from patent US7534937B2, “Genes conferring herbicide resistance” (Athenix Corporation, priority 2004, dated 2009).

Test system: E. coli strain DH5α
Assay: Growth (OD600) in M63 broth containing glyphosate of cells carrying pAX299 (grg8)
Assay type: cell-based
Conditions: for OD600: 37° C., about 46 hours, means ± standard deviations, triplicate cultures
Method: The grg8 open reading frame (ORF) was amplified by PCR, cloned into the plasmid vector pCR-Blunt-II from Invitrogen, and transformed into E. coli strain DH5α. Plasmid DNA was prepared and the presence and orientation of the inserts were determined by restriction digest. One clone contained the ORF in the forward orientation with respect to the lac promoter in the vector. This plasmid was named pAX299. The insert was sequenced and the plasmid was tested for the ability to confer resistance to glyphosate.
pAX299 was tested for the ability to grow on M63 medium in the presence of glyphosate using cells containing empty vector as a control. The plasmid pAX296 in host strain DH5α was used as a negative control. This plasmid contains a fragment of tobacco genomic DNA cloned into the vector pCR-Blunt-II. Starter cultures of the two strains were grown in M63 broth with 50 μg/ml kanamycin to maintain the plasmid. The starter cultures were diluted to approximately equal cell densities, as determined by measuring OD600, then diluted 1 to 200 into 3 ml of M63 broth containing 0 to 200 mM glyphosate. Triplicate 3 ml cultures of each strain in each concentration were grown. Cultures were grown at 37° C. with constant shaking. After about 46 hours, 0.3 ml aliquots were withdrawn and the OD600 was measured. Values represent means + standard deviations.

B1: grg8: Glyphosate resistance gene from strain ATX4145 encoding a novel non-Class II EPSP synthase (SEQ ID NO:3); ORF carried in plasmid pAX299 (protein, listed as Brevundomonas vesicularis)
chain: MMMGRAKLTIIPPGKPLTGRAMPPGSKSITNRALLLAGLAKGTSRLTGALKSDDTRYMAEALRAMGVTIDEPDDTTFIVKGSGKLQPPAAPLFLGNAGTATRFLTAAAALVDGKVIVDGDAHMRKRPIGPLVDALRSLGIDASAETGCPPVTINGTGRFEASRVQIDGGLSSQYVSALLMMAAGGDRAVDVELLGEHIGALGYIDLTVAAMRAFGAKVERVSPVAWRVEPTGYHAADFVIEPDASAATYLWAAEVLSGGKIDLGTPAEQFSQPDAKAYDLISKFPHLPAVIDGSQMQDAIPTLAVLAAFNEMPVRFVGIENLRVKECDRIRALSSGLSRIVPNLGTEEGDDLIIASDPSLAGKILTAEIDSFADHRIAMSFALAGLKIGGITILDPDCVAKTFPSYWNVLSSLGVAYED
OD600 (0 mM glyphosate): 1.18 ± 0.029
Glyphosate resistance (conclusion from Table 1) (0 to 200 mM glyphosate): confers resistance to high levels of glyphosate
OD600 (10 mM glyphosate): 1.15 ± 0.018
OD600 (20 mM glyphosate): 1.10 ± 0.043
OD600 (50 mM glyphosate): 1.20 ± 0.037
OD600 (100 mM glyphosate): 1.31 ± 0.024
OD600 (200 mM glyphosate): 0.05 ± 0.004
